Assay results: patent US20230140384A1 (Bristol-Myers Squibb, published 2023)
Changes are numbered by the printed parent chain. Names and notes keep the numbering of the source.

B1: 12D6-IgG1f-L235E-P238K (antibody)
heavy: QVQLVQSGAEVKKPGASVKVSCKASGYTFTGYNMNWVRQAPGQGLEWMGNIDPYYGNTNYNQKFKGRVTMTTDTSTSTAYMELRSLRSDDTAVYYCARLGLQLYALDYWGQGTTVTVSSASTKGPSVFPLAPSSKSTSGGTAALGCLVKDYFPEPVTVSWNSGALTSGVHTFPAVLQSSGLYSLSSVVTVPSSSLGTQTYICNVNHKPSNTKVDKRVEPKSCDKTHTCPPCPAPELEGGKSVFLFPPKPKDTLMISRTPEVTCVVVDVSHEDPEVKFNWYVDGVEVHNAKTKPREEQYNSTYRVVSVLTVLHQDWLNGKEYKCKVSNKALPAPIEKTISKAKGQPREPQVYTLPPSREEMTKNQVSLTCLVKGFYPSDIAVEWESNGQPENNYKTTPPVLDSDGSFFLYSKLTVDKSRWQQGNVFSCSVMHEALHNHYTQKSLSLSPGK
light: DIVMTQTPLSLPVTPGEPASISCRSSQSLVHSNANTYLHWYLQKPGQSPQLLIYKLTNRFFGVPDRFSGSGSGTDFTLKISRVEAEDVGVYYCSQSIHVPWTFGGGTKVEIKRTVAAPSVFIFPPSDEQLKSGTASVVCLLNNFYPREAKVQWKVDNALQSGNSQESVTEQDSKDSTYSLSSTLTLSKADYEKHKVYACEVTHQGLSSPVTKSFNRGEC
notes: Tested as expression supernatant; copies: 2 + 2
B2: 12D6-IgG1.3f-P238K (antibody)
heavy: QVQLVQSGAEVKKPGASVKVSCKASGYTFTGYNMNWVRQAPGQGLEWMGNIDPYYGNTNYNQKFKGRVTMTTDTSTSTAYMELRSLRSDDTAVYYCARLGLQLYALDYWGQGTTVTVSSASTKGPSVFPLAPSSKSTSGGTAALGCLVKDYFPEPVTVSWNSGALTSGVHTFPAVLQSSGLYSLSSVVTVPSSSLGTQTYICNVNHKPSNTKVDKRVEPKSCDKTHTCPPCPAPEAEGAKSVFLFPPKPKDTLMISRTPEVTCVVVDVSHEDPEVKFNWYVDGVEVHNAKTKPREEQYNSTYRVVSVLTVLHQDWLNGKEYKCKVSNKALPAPIEKTISKAKGQPREPQVYTLPPSREEMTKNQVSLTCLVKGFYPSDIAVEWESNGQPENNYKTTPPVLDSDGSFFLYSKLTVDKSRWQQGNVFSCSVMHEALHNHYTQKSLSLSPGK
light: B1 light
notes: Tested as expression supernatant; IgG1.3f carries L234A, L235E and G237A; copies: 2 + 2
B3: 12D6-IgG2.3G1.3f-P238K (antibody)
heavy: QVQLVQSGAEVKKPGASVKVSCKASGYTFTGYNMNWVRQAPGQGLEWMGNIDPYYGNTNYNQKFKGRVTMTTDTSTSTAYMELRSLRSDDTAVYYCARLGLQLYALDYWGQGTTVTVSSASTKGPSVFPLAPCSRSTSESTAALGCLVKDYFPEPVTVSWNSGALTSGVHTFPAVLQSSGLYSLSSVVTVPSSNFGTQTYTCNVDHKPSNTKVDKTVERKSCVECPPCPAPEAEGAKSVFLFPPKPKDTLMISRTPEVTCVVVDVSHEDPEVKFNWYVDGVEVHNAKTKPREEQYNSTYRVVSVLTVLHQDWLNGKEYKCKVSNKALPAPIEKTISKAKGQPREPQVYTLPPSREEMTKNQVSLTCLVKGFYPSDIAVEWESNGQPENNYKTTPPVLDSDGSFFLYSKLTVDKSRWQQGNVFSCSVMHEALHNHYTQKSLSLSPGK
light: B1 light
notes: copies: 2 + 2
B4: 12D6-IgG2.5G1.3f-P238K (antibody)
heavy: B3 heavy with C133S, S221C
light: B1 light
notes: copies: 2 + 2

Key:
hCD64 [1] = target: T1, hCD64 (human, UniProt P12314 16-288); experiment: SPR % Rmax, compared with 12D6-IgG1f-P238K
T1 construct: also called FcγRI
T1 sequence (P12314 16-288 limits assumed): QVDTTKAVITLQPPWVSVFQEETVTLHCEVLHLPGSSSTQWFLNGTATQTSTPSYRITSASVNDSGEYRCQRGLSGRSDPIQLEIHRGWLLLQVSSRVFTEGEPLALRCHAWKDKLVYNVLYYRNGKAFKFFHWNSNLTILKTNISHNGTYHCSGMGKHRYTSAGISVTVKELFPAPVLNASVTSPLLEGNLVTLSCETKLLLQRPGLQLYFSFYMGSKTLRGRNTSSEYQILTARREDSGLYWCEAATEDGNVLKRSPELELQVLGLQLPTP
Description: (§1) The binding of human FcγRs to antibodies was studied by surface plasmon resonance using a Biacore 8K system (GE Healthcare, USA). For these studies, protein A was immobilized on flow cells 1-4 of the CM5 sensor chip using standard ethyl (dimethylaminopropyl) carbodiimide (EDC)/N-hydroxysuccinimide […] chemistry, with ethanolamine blocking, in a running buffer of 10 mM HEPES pH 7.4, 150 mM NaCl, 3 mM EDTA, 0.05% surfactant p20, to a density of ˜3000 RU. Purified 12D6-24-IgG1f antibody (10 μg/mL) or expression supernatants of all other antibodies (diluted to ˜10 μg/ml) were captured on the protein A surface to a density of ˜1000-1200 RU, and the binding of FcγR analytes was tested in running buffer consisting of 10 mM NaPO₄, 130 mM NaCl, 0.05% p20, buffer (PBS-T) pH 7.1 at 25° C., using 120 s association time and 120 s dissociation time at a flow rate of 20 μL/min. The data were analyzed using Biacore 8K evaluation software by determining the measured binding response as a percentage of theoretical maximum binding response for each antibody (% Rmax), based on the level of captured antibody, assuming 100% fractional activity and only taking into account protein mass without glycosylation.

hCD64 [2] = target: T1, hCD64; experiment: SPR, antibody captured on protein A, FcγR as analyte
Description: as §1

Row | Binder | fold reduction of binding against P238K alone (hCD64 [1]) [fold] | binding result (hCD64 [2])
1 | B1 | ~10 | –
2 | B2 | – | no binding (tested: 1 µM)
3 | B3 | – | no binding (tested: 1 µM)
4 | B4 | – | no binding (tested: 1 µM)
